Assay results from patent US20110229941.

Molecular target: T1, crotonyl-S-SfaO (N-terminal 6x His-tagged free acyl carrier protein SfaO carrying a crotonyl thioester)
T1 chain: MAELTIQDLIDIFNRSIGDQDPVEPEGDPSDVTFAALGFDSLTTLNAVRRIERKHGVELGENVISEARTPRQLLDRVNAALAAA

B1: N-terminal 6x His-tagged SfaR (crotonyl-CoA reductase) (protein)
chain: VNEILSAVLSAEATAADFAALPLPESYRAITVHKDETEMFTGVGPADKDPRKSLHLDEVPVPELGPGEALVAVMASSVNYNSVWSSIFEPLPTFAFLERYGRRGELAKRHDLPYHVIGSDLAGVVLRTGPGVQAWKPGDEVVAHCLSVELESSDGHDDTMMDPEQRIWGFETNFGGLAELALVKSNQLMPKPRHLTWEEAAAPGLVNSTAYRQLVSRNGAQMKQGDNVLIWGASGGLGSYATQLALAGGANPVCVVSTPQKAAICRSMGAEAVIDRDAEDYRFWRDGNTQDPREWKRFGKRIRELTGGEDVDIVFEHPGRETFGASVFVARKGGTIVTCASTSGYEHQYDNRYLWMSLKRIIGSHFANYREAWEANRLVAKGRIHPTLSKVYPLEETGQAAFDVYGNVHHGKVGVLGLAPTEGLGVRDEEMRARHVGAINRFRPSAEPQTEPV
- activity of SfaR (reduction / reductive carboxylation) with crotonyl-S-SfaO as the substrate: failed to detect any activity of SfaR
